Biological target: human AXL (full length) (human) (UniProt P30530)
Test: flow cytometry; A431 cells pre-incubated with 10 µg/mL Gas6

Sequence of UniProt P30530 (P30530 26-894 limits assumed): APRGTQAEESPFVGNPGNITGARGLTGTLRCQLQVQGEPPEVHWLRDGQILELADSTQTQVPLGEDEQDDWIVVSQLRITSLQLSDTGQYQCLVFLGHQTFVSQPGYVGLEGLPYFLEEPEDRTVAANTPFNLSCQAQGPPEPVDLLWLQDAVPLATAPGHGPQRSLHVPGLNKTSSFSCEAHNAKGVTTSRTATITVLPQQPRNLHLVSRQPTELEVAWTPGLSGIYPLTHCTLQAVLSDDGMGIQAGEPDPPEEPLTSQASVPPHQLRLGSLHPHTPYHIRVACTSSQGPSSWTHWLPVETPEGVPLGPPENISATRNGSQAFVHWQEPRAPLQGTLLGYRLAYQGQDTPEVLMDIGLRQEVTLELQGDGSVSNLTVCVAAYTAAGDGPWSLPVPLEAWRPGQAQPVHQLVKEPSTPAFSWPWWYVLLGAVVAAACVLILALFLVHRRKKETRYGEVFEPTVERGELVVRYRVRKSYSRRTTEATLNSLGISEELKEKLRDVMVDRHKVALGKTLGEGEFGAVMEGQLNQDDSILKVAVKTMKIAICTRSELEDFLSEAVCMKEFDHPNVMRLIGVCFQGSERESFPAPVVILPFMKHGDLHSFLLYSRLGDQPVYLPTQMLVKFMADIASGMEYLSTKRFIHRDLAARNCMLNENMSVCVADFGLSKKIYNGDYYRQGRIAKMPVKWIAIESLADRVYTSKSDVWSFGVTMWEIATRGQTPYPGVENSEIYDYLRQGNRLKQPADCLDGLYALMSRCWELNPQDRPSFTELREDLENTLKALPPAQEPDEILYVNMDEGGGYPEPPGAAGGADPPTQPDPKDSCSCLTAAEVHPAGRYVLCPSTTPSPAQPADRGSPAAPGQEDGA

fold change of EC50 with Gas6 pre-incubation against without Gas6: 21 fold
maximal binding in presence of Gas6 (% of binding in absence of Gas6): 19%
B1: IgG1-YW327.6S2 (antibody, from another filing, V domains shown)
VH: EVQLVESGGGLVQPGGSLRLSCAASGFSLSGSWIHWVRQAPGKGLEWVGWINPYRGYAYYADSVKGRFTISADTSKNTAYLQMNSLRAEDTAVYYCAREYSGWGGSSVGYAMDYWGQGTLVTVSS
VL: DIQMTQSPSSLSASVGDRVTITCRASQDVSTAVAWYQQKPGKAPKLLIYSASFLYSGVPSRFSGSGSGTDFTLTISSLQPEDFATYYCQQSYTTPPTFGQGTKVEIK

Reference: US20190030180A1
